Laboratory results taken from IntAct's records for PubMed 21390248.

B1: 14-3-3 protein gamma (Mus musculus), P61982 (parent)
chain: MVDREQLVQKARLAEQAERYDDMAAAMKNVTELNEPLSNEERNLLSVAYKNVVGARRSSWRVISSIEQKTSADGNEKKIEMVRAYREKIEKELEAVCQDVLSLLDNYLIKNCSETQYESKVFYLKMKGDYYRYLAEVATGEKRATVVESSEKAYSEAHEISKEHMQPTHPIRLGLALNYSVFYYEIQNAPEQACHLAKTAFDDAIAELDTLNEDSYKDSTLIMQLLRDNLTLWTSDQQDDDGGEGNN

Variants of: B1
Conditions: with lrrk2_mouse Lrrk2, Q5S006
Sequence of lrrk2_mouse Lrrk2, Q5S006 (Q5S006 whole entry): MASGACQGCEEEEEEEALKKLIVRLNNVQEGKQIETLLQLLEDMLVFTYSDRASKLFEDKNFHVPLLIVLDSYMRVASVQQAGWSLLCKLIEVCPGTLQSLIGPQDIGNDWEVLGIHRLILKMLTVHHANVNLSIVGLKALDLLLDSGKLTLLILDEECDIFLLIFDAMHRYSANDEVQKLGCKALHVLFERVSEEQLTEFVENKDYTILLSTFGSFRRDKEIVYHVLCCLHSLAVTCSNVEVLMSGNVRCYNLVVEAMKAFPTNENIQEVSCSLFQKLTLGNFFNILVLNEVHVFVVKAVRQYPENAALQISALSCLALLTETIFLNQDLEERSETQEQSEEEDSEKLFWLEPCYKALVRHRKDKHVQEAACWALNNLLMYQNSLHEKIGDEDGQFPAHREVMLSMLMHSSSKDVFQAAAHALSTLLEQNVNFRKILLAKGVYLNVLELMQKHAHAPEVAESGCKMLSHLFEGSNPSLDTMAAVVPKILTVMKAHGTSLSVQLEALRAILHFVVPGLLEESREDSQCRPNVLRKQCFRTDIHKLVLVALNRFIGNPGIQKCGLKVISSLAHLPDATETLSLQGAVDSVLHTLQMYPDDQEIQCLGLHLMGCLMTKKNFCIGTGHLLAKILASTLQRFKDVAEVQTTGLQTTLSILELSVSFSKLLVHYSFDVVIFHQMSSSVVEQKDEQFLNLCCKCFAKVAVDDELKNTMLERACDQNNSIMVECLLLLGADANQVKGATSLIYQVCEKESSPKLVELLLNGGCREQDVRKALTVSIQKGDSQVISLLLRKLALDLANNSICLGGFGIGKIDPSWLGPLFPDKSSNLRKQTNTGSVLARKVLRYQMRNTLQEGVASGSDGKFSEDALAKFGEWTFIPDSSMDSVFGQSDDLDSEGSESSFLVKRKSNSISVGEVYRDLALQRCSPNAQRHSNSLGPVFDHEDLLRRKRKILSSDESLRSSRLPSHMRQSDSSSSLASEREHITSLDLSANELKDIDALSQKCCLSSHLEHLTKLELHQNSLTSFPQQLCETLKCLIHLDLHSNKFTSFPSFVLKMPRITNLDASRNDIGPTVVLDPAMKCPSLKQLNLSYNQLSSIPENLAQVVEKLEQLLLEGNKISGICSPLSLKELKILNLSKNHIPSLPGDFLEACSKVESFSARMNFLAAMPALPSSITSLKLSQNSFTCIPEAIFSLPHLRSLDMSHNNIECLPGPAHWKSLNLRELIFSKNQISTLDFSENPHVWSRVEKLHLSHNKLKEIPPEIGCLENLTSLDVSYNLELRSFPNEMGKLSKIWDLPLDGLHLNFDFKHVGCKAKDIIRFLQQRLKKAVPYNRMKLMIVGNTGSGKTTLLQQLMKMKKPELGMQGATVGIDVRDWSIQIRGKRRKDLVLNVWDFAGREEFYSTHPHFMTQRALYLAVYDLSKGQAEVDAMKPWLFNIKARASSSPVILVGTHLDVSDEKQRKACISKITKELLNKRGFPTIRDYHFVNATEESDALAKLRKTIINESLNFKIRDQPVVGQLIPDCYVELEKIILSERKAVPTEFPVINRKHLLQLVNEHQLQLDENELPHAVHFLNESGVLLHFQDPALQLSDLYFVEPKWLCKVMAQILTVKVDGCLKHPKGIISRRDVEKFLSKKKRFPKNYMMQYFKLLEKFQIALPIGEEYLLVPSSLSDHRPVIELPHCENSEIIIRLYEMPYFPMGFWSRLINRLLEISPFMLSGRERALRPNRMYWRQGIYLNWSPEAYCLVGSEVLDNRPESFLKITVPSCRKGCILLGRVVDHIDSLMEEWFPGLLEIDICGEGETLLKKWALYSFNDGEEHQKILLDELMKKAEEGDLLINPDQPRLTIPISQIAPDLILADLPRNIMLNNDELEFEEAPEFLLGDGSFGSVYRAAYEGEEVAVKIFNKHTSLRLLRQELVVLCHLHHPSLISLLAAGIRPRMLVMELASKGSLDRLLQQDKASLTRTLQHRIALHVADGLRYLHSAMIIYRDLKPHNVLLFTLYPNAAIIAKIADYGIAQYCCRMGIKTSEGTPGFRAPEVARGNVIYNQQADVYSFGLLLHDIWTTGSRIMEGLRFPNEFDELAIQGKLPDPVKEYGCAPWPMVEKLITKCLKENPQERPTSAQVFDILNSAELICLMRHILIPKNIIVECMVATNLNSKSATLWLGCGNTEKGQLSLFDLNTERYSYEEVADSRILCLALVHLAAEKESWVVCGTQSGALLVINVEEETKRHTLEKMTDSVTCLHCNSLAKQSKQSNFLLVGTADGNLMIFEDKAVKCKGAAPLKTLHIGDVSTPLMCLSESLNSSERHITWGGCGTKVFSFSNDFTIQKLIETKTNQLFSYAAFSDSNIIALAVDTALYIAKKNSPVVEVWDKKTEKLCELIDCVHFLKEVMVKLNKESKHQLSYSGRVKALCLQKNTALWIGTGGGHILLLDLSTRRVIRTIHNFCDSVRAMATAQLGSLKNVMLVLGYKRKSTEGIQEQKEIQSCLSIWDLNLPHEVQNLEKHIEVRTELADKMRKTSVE

Row | effect of a mutation on the interaction | Variant
1 | disrupting interaction | MVDREQLVQKARLAEQAERYDDMAAAMKNVTELNEPLSNEERNLLSVAYENVVGARRSSWRVISSIEQKTSADGNEKKIEMVRAYREKIEKELEAVCQDVLSLLDNYLIKNCSETQYESKVFYLKMKGDYYRYLAEVATGEKRATVVESSEKAYSEAHEISKEHMQPTHPIRLGLALNYSVFYYEIQNAPEQACHLAKTAFDDAIAELDTLNEDSYKDSTLIMQLLRDNLTLWTSDQQDDDGGEGNN [K50E]
2 | disrupting interaction | MVDREQLVQKARLAEQAERYDDMAAAMKNVTELNEPLSNEERNLLSVAYKNVVGARRSSWRVISSIEQKTSADGNEKKIEMVRAYREKIEKELEAVCQDVLSLLDNYLIKNCSETQYESKVFYLKMKGDYYRYLAEVATGEKRATVVESSEKAYSEAHEISKEHMQPTHPIRLGLALNYSDFYYEIQNAPEQACHLAKTAFDDAIAELDTLNEDSYKDSTLIMQLLRDNLTLWTSDQQDDDGGEGNN [V181D]
